Experiments:
Assay in all cases: IEDB peptide-MHC binding, purified MHC/direct/fluorescence; filed as Kd, often an IC50 or EC50 that approximates it; ≥ and ≤ were set here for values at or beyond the usual limits of such assays
HLA-B*07:02 = biological target: HLA-B*07:02
HLA-B*40:01 = biological target: HLA-B*40:01
HLA-A*24:03 = biological target: HLA-A*24:03
HLA-A*01:01 = biological target: HLA-A*01:01
HLA-B*08:01 = biological target: HLA-B*08:01
HLA-A*03:01 = biological target: HLA-A*03:01
HLA-A*02:01 = biological target: HLA-A*02:01
HLA-B*15:01 = biological target: HLA-B*15:01
HLA-A*26:01 = biological target: HLA-A*26:01
HLA-B*35:01 = details: source organism: Yellow fever virus
HLA-B*58:01 = biological target: HLA-B*58:01
HLA-B*27:05 = biological target: HLA-B*27:05
[1] = source organism: Yellow fever virus
[2] = source organism: dengue virus type 2
[3] = source organism: dengue virus type 1
[4] = source organism: dengue virus type 4
[5] = source organism: dengue virus type 3

Sequence: AATIRVLAL
- Kd (HLA-B*07:02; [1]): 204 nM

Sequence: AELTGYGTV
- Kd (HLA-B*40:01; [2]): 21 nM

Sequence: AEMGANLCV
- Kd (HLA-B*40:01; [1]): 2 nM

Sequence: AEVRLATML
- Kd (HLA-B*40:01; [1]): 24 nM

Sequence: AFHGLDVKF
- Kd (HLA-A*24:03; [1]): 14 nM

Sequence: AIDLDPVVY
- Kd (HLA-A*01:01; [3]): 25 nM

Sequence: AIHPFALLL
- Kd (HLA-B*08:01; [1]): ≥ 20 µM

Sequence: ALNTITNLK
- Kd (HLA-A*03:01; [1]): 245 nM

Sequence: AMLHWSLIL
- Kd (HLA-A*02:01; [1]): 114 nM

Sequence: AQAVMEMTY
- Kd (HLA-B*15:01; [1]): 56 nM

Sequence: AQEDDQYVF
- Kd (HLA-B*15:01; [4]): 81 nM

Sequence: AQMWSLMYF
- Kd (HLA-B*40:01; [4]): 32 nM

Sequence: ATYGWNLVK
- Kd (HLA-A*03:01; [4]): 3 nM

Sequence: AVSMANIFR
- Kd (HLA-A*03:01; [3]): 52 nM

Sequence: AVSRGTAKL
- Kd (HLA-B*07:02; [1]): 6770 nM

Sequence: CAHWKEAKM
- Kd (HLA-B*08:01; [2]): 7.05 µM

Sequence: CPTQGEATL
- Kd (HLA-B*07:02; [3]): 821 nM

Sequence: DSDDWLNKY
- Kd (HLA-A*01:01; [1]): ≤ 1 nM

Sequence: DVVPMVTQM
- Kd (HLA-A*26:01; [2]): 2 nM

Sequence: EAMDTISVF
- Kd (HLA-B*35:01): ≤ 1 nM
- Kd (HLA-A*26:01; [1]): 7 nM

Sequence: EAPEMPALY
- Kd (HLA-A*26:01; [1]): 594 nM

Sequence: EEEQTLTIL
- Kd (HLA-B*40:01; [2]): 2 nM

Sequence: EISGSSARY
- Kd (HLA-A*01:01; [1]): 95 nM
- Kd (HLA-A*26:01; [1]): 3 nM

Sequence: ELKGMSYAM
- Kd (HLA-B*08:01; [5]): 0.132 µM

Sequence: ESDPEGALW
- Kd (HLA-A*01:01; [3]): 57 nM

Sequence: ESWIVDRQW
- Kd (HLA-B*58:01; [1]): 123 nM

Sequence: ETACLSKAY
- Kd (HLA-B*35:01): 288 nM
- Kd (HLA-A*26:01; [1]): 8 nM

Sequence: ETLETLLLL
- Kd (HLA-A*26:01; [2]): 347 nM

Sequence: EVDQTKIQY
- Kd (HLA-A*01:01; [1]): 166 nM
- Kd (HLA-A*26:01; [1]): 3680 nM

Sequence: EVHTWTEQY
- Kd (HLA-A*26:01; [3]): 2 nM

Sequence: EVRLATMLF
- Kd (HLA-B*08:01; [1]): 1.75 µM

Sequence: EYTDYMPSM
- Kd (HLA-A*26:01; [2]): 1820 nM

Sequence: FCIKVLNPY
- Kd (HLA-A*26:01; [4]): ≥ 20000 nM

Sequence: FCVKVLAPY
- Kd (HLA-B*35:01): 10 nM
- Kd (HLA-A*26:01; [1]): 427 nM

Sequence: FLILGMLLM
- Kd (HLA-A*26:01; [1]): ≥ 20000 nM

Sequence: FRKGSSIGK
- Kd (HLA-B*27:05; [4]): 52 nM

Sequence: FRKKRLTIM
- Kd (HLA-B*08:01; [2]): 0.014 µM

Sequence: FTTNIWMKF
- Kd (HLA-A*26:01; [4]): 117 nM

Sequence: FVRNPFFAV
- Kd (HLA-A*02:01; [1]): 1250 nM

Sequence: GEDGCWYGM
- Kd (HLA-B*40:01; [3]): 10 nM

Sequence: GFLNEDHWF
- Kd (HLA-A*24:03; [2]): 34 nM

Sequence: GFMNEDHWF
- Kd (HLA-A*24:03; [3]): 17 nM

Sequence: GLFGGLNWI
- Kd (HLA-A*02:01; [1]): ≤ 1 nM

Sequence: GMGEAAAIF
- Kd (HLA-B*15:01; [3]): 29 nM

Sequence: GMMGGLWKY
- Kd (HLA-B*15:01; [1]): 32 nM

Sequence: GPAEARKVC
- Kd (HLA-B*07:02; [1]): 117 nM

Sequence: GPSLRTTTV
- Kd (HLA-B*07:02; [3]): 3 nM

Sequence: GSRAYRNAL
- Kd (HLA-B*08:01; [1]): 0.694 µM

Sequence: GTGDSRLTY
- Kd (HLA-A*01:01; [1]): 75 nM
- Kd (HLA-A*26:01; [1]): ≥ 20000 nM

Sequence: GTHPFSRIR
- Kd (HLA-A*03:01; [1]): 859 nM

Sequence: GTTVVKVKY
- Kd (HLA-A*01:01; [4]): ≥ 20000 nM

Sequence: GVEGIGLQY
- Kd (HLA-A*01:01; [1]): 48 nM

Sequence: GVQGFIFFF
- Kd (HLA-A*01:01; [1]): ≥ 20000 nM

Sequence: HEVNGTWMI
- Kd (HLA-B*40:01; [1]): 10 nM

Sequence: HLKRLWKML
- Kd (HLA-B*08:01; [1]): 0.016 µM

Sequence: HPGFTILAL
- Kd (HLA-B*07:02; [5]): 8 nM

Sequence: HSEEGSRAY
- Kd (HLA-B*35:01): 3 nM
- Kd (HLA-A*01:01; [1]): 14 nM

Sequence: ICSAVPSHW
- Kd (HLA-B*58:01; [2]): 394 nM

Sequence: ICSAVPVHW
- Kd (HLA-B*58:01; [5]): 76 nM

Sequence: IEEFGTGVF
- Kd (HLA-B*40:01; [1]): 9 nM

Sequence: IFFFLFNIL
- Kd (HLA-A*24:03; [1]): 19 nM

Sequence: IHTVFGSAF
- Kd (HLA-A*24:03; [1]): 373 nM

Sequence: IIMDEAHFL
- Kd (HLA-A*02:01; [1]): 3 nM

Sequence: ILRNPGFAL
- Kd (HLA-B*07:02; [4]): 2 nM

Sequence: ILTDGPERV
- Kd (HLA-A*02:01; [5]): 4 nM

Sequence: IMAVGLVSL
- Kd (HLA-A*02:01; [4]): 93 nM

Sequence: IMGAVLIWV
- Kd (HLA-A*02:01; [1]): 59 nM

Sequence: ISYIMLIFF
- Kd (HLA-B*58:01; [1]): 1050 nM

Sequence: ITAAAWYLW
- Kd (HLA-B*58:01; [2]): 46 nM

Sequence: ITAHLKRLW
- Kd (HLA-B*58:01; [1]): 46 nM

Sequence: KAYAQMWSL
- Kd (HLA-B*58:01; [4]): 10 nM

Sequence: KCRLRMDKL
- Kd (HLA-B*08:01; [2]): 6.92 µM

Sequence: KEVSGVKGF
- Kd (HLA-B*40:01; [1]): 109 nM

Sequence: KIMKVVNRW
- Kd (HLA-B*58:01; [1]): 37 nM

Sequence: KKKLRPRWL
- Kd (HLA-B*08:01; [5]): 12.7 µM

Sequence: KLEGKIVQY
- Kd (HLA-B*15:01; [3]): 126 nM

Sequence: KLQLKGMSY
- Kd (HLA-B*15:01; [2]): 111 nM

Sequence: KMDIGVPLL
- Kd (HLA-A*02:01; [2]): ≤ 1 nM

Sequence: KMLDPRQGL
- Kd (HLA-A*02:01; [1]): 39 nM

Sequence: KQIANELNY
- Kd (HLA-B*15:01; [5]): 113 nM

Sequence: KQLGQVMLL
- Kd (HLA-B*27:05; [4]): 129 nM

Sequence: KRAAAGIMK
- Kd (HLA-B*27:05; [2]): 75 nM

Sequence: KRVVASLMR
- Kd (HLA-B*27:05; [1]): 107 nM

Sequence: KSAAIDGEY
- Kd (HLA-A*01:01; [5]): 50 nM

Sequence: KSAHGSPTF
- Kd (HLA-B*58:01; [1]): 36 nM

Sequence: KTALTGAMR
- Kd (HLA-A*03:01; [1]): 147 nM

Sequence: KTFDTEYQK
- Kd (HLA-A*03:01; [5]): 198 nM

Sequence: KTFVDLMRR
- Kd (HLA-A*03:01; [2]): 80 nM

Sequence: KTFVELMRR
- Kd (HLA-A*03:01; [4]): 45 nM

Sequence: KTHESHLVR
- Kd (HLA-A*03:01; [1]): 678 nM

Sequence: KTNDRKWCF
- Kd (HLA-B*58:01; [1]): 58 nM

Sequence: KTWGKNLVF
- Kd (HLA-B*58:01; [1]): 19 nM

Sequence: KVASAGISY
- Kd (HLA-A*03:01; [4]): 85 nM

Sequence: KVVNRWLFR
- Kd (HLA-A*03:01; [1]): 218 nM

Sequence: KWKKKLNQL
- Kd (HLA-B*08:01; [5]): ≥ 20 µM

Sequence: LAKRFSKGL
- Kd (HLA-B*08:01; [3]): 4.48 µM

Sequence: LAVMGDAAW
- Kd (HLA-B*35:01): ≤ 1 nM
- Kd (HLA-B*58:01; [1]): 3 nM

Sequence: LEDGIYGIF
- Kd (HLA-B*40:01; [1]): ≤ 1 nM

Sequence: LEFEALGFL
- Kd (HLA-B*40:01; [5]): ≤ 1 nM

Sequence: LEFFLMVLL
- Kd (HLA-B*40:01; [3]): 177 nM

Sequence: LLLTLLATV
- Kd (HLA-A*02:01; [2]): 43 nM

Sequence: LVAGGLLTV
- Kd (HLA-A*02:01; [2]): ≥ 20000 nM

Sequence: LVGAAIHPF
- Kd (HLA-B*35:01): 29 nM
- Kd (HLA-A*24:03; [1]): 575 nM

— the Immune Epitope Database (IEDB)
